In one data set the test system is Botrytis. Briefly: Open-air field trial on strawberry (Example 4.1, AUDPC of % disease severity). The format is in vivo, Botrytis cinerea. The conditions noted are these: FIG. 6. The procedure: RNAi compositions, each containing a dsRNA comprising a trigger sequence (GS349 or GS730) described herein were evaluated for ability to control botrytis on strawberry in open-air field trials. Non-formulated (dissolved in water) GS349 and GS730 were each tank mixed with water and the standard adjuvant Silwet L-77 0.1% v/v. GS349 was tested at concentrations of 25 grams of active ingredient per hectare (g ai/ha) and 50 g ai/ha and GS730 was tested at a concentration of 100 g ai/ha. Serenade ASO 85 g ai/ha, a standard biological fungicide, was used as a positive control. A second positive control group was treated with alternating applications of the chemical standards Teldor Plus 750 g ai/ha, Signum 600 g ai/ha, and Switch 500 g ai/ha. The trial also included an untreated group as a negative control.
Test compositions and positive controls were sprayed onto strawberry plants in 12 applications. Plants were observed beginning 14 days after the first application and disease progress was assessed by determining the percentage of surface area of fruit that was affected by the disease (% Disease Severity). Disease severity was plotted over the length of the trial observations and area under disease progress curve (AUDPC) was calculated in order to measure the cumulative effect of the various treatments across multiple assessments. Means were separated according to Fisher's LSD, alpha (p)≤0.05.

In data set [1] the test system is Botrytis cinerea B05.10 isolate. Briefly: Greenhouse whole plant assay (tomato 'Lanai', disease severity). Particulars: final rating day (rating #3), two runs, three-week-old 'Lanai' tomato plant. The format is in vivo.
The next data set deals with Botrytis cinerea conidia. Briefly: In vitro liquid-based assay (fungal biomass, 96-well plates, Cytation 5). The data set is classed as cell-based. Particulars: co-incubated with conidia for three days, vs untreated control. In outline:
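Conidia (5000/mL stock) were co-incubated with dsRNA or control treatments in pH 6.0 minimal medium. Incubation ran 72 h at 23 °C, shaking at 120 rpm under continuous light. Fungal biomass was measured by brightfield imaging (8 slices per well, 2.5× lens) and expressed as average reduction versus control.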

This note sets out measurements from patent US20230189818A1, “RNA-BASED CONTROL OF BOTRYTIS” (priority 2021, published 2023).

B1: GS349: dsRNA trigger targeting B. cinerea CDC42 (XM_001545642.2); trigger SEQ ID NO 14, RNA 26, reverse complement 38 (nucleic acid, listed as Botrytis cinerea)
sense: GUUGUCUUGUCUCGCUCAAGCUUGUCCUGUCUGGUCACUUUUCUUUCUGCCUGAUAAUCCAGACCUCGAAAAUAACCAAAAGAUUGGAAAUCGUUUGCUCAUCUUGCAUGCAUUAUUACUUUCCUGGAUCAAUCUCAUUCAACUCGUUCUCGUGCAUUUCAUUCAACCUCAACCCCUACUUUCAGUCAAUUCAAUUUAAUUCAAUCAUUCAAAUCUUUCAUUUCGCACACUUCACAUUCAACCAUCCUCUCUCAAUCAAAUAUCACCACCUCUCUUAUCGAACGUCAUUUUGCAUACAAUCAAUUCCUACAGACCGAGCGCAACUCGAUACAACCAUCGAAUAACUUCUCACACUUGCUUGUUGAAUUGAUUACUGAAGAAAGUGGAUUUCAAAGACCGAUUUUCCCCCUAGAUAUUCAAGAACGGCUUAUUCUUGUCUCGAGACAAAAC
antisense: GUUUUGUCUCGAGACAAGAAUAAGCCGUUCUUGAAUAUCUAGGGGGAAAAUCGGUCUUUGAAAUCCACUUUCUUCAGUAAUCAAUUCAACAAGCAAGUGUGAGAAGUUAUUCGAUGGUUGUAUCGAGUUGCGCUCGGUCUGUAGGAAUUGAUUGUAUGCAAAAUGACGUUCGAUAAGAGAGGUGGUGAUAUUUGAUUGAGAGAGGAUGGUUGAAUGUGAAGUGUGCGAAAUGAAAGAUUUGAAUGAUUGAAUUAAAUUGAAUUGACUGAAAGUAGGGGUUGAGGUUGAAUGAAAUGCACGAGAACGAGUUGAAUGAGAUUGAUCCAGGAAAGUAAUAAUGCAUGCAAGAUGAGCAAACGAUUUCCAAUCUUUUGGUUAUUUUCGAGGUCUGGAUUAUCAGGCAGAAAGAAAAGUGACCAGACAGGACAAGCUUGAGCGAGACAAGACAAC
Take B1: the “Disease control compared with the biological standard (AUDPC)” value in the data set with Botrytis (50 g/h ai, Serenade ASO 85 g ai/ha) is given as “significantly improved control”. Moreover, the “Disease control compared with the chemical standard (AUDPC)” value in the data set on Botrytis (50 g/h ai, alternating Teldor Plus, Signum, Switch) is on record as “not significantly different”. Further, in the data set with Botrytis (GS349 25 g ai/ha, GS730 100 g ai/ha, Serenade ASO 85 g ai/ha), the “Disease control compared with the biological standard, Serenade (AUDPC)” value was “not significantly different”. The “Control of Botrytis vs. the untreated control (AUDPC)” value in the data set with Botrytis (non-formulated, Silwet L-77 0.1% v/v, 12 applications, GS349 25 and 50 g ai/ha, GS730 100 g ai/ha) is “significant control”. The entries for the “% control” value in data set [1] (8 g ai/ha) and in data set [1] (25 g ai/ha) were 46% and 59%, respectively. Besides, the “Average % Reduction in Biomass” value amounted to 8% in the data set with Botrytis cinerea conidia (25 ppm dsRNA) and 25% with Botrytis cinerea conidia (150 ppm dsRNA).
